Patent publication US20100135997A1 (MEDGENE, published 2010)
Numbering of substitutions follows the chain as printed.

B1: SEQ ID NO 19 (receptor)
chain: MAGHLPKPTLWAEPGSVITMDQPVTLRCQGGQETQEYRLYREKKTAPWITRIPQELVKKGQFPIPSITWEHAGRYRCYYGSDTSQWSASSDPLELVVTGVYIKPTLSAQPSPVVNSGGNVTLQCDSQVAFDGFILCKEGEDEHPQCLNSQPHARGSSRAIFSVGPVSPSRRWWYRCYAYMSWSPYEWSLPSDLLELDVDG
notes: mutated soluble two domain ILT-2; also called clone 83; Clone c83
B2: SEQ ID NO 10 (receptor)
chain: B1 chain with M180T, S181D, W182Y
notes: mutated soluble two domain ILT-2
B3: SEQ ID NO 9 (receptor)
chain: B1 chain with S181N, S183A
notes: as for B2
B4: SEQ ID NO 8 (receptor)
chain: B1 chain with M180V, S181A, S183A
notes: as for B2
B5: SEQ ID NO 7 (receptor)
chain: B1 chain with M180P, S181I, S183T
notes: as for B2
B6: SEQ ID NO 61 (receptor)
chain: MGHLPKPTLWAEPGSVITMGQPVTLRCQGGQETQEYRLYREKKTAPWITRIPQELVKKGQFPIPSITWEHAGRYRCYYGSDTAGRSESSDPLELVVTGAYIKPTLSAQPSPVVNSGGNVTLQCDSQVAFDGFILCKEGEDEHPQCLNSQPHARGSSRAIFSVGPVSPSRRWWYRCYAYDSNSPYEWSLPSDLLELLVL
notes: as for B2
B7: SEQ ID NO 81 (receptor)
chain: B6 chain with G20D, Y77M, Y78Q, G79Y, S80T, D81L, A99V
notes: as for B2
B8: SEQ ID NO 83 (receptor)
chain: B6 chain with M19Q, Q21S, A99I, I101L, K102A
notes: as for B2
B9: SEQ ID NO 102 (receptor)
chain: B6 chain with M19Q, Q21S, A99I, I101Q
notes: as for B2
B10: SEQ ID NO 106 (receptor)
chain: B6 chain with M19L, A83S, G84Q, R85W, E87A, A99I, I101L, K102A
notes: as for B2
B11: SEQ ID NO 80 (receptor)
chain: B6 chain with G20D, Y77V, Y78I, G79Q, S80R, D81G, A99V
notes: as for B2
B12: SEQ ID NO 63 (receptor)
chain: B6 chain with M19L, G20M
notes: as for B2
B13: SEQ ID NO 82 (receptor)
chain: B6 chain with M19Q, Q21S, A99I, I101R, K102Q
notes: as for B2
B14: SEQ ID NO 62 (receptor)
chain: B6 chain with G20D, A99V, S168G
notes: as for B2
B15: SEQ ID NO 65 (receptor)
chain: B6 chain with G20D, A83S, G84Q, R85W, E87A, A99V
notes: as for B2
B16: SEQ ID NO 70 (receptor)
chain: B6 chain with W10Q, M19Q, Q21S, Y77V, Y78I, G79Q, S80R, D81G, A99V
notes: as for B2
B17: SEQ ID NO 71 (receptor)
chain: B6 chain with M19Q, Q21S, D81Q, T82G, A83G, G84L, A99V
notes: as for B2
B18: SEQ ID NO 89 (receptor)
chain: B6 chain with M19L, A99V, S168G
notes: as for B2
B19: SEQ ID NO 79 (receptor)
chain: B6 chain with G20D, S80T, D81Q, A99V, S168G
notes: as for B2
B20: SEQ ID NO 101 (receptor)
chain: B6 chain with M19Q, Q21S, A99I, I101K, K102Q, S168G
notes: as for B2
B21: SEQ ID NO 72 (receptor)
chain: B6 chain with M19Q, Q21S, S80T, D81Q, A99V
notes: as for B2
B22: SEQ ID NO 90 (receptor)
chain: B6 chain with M19Q, Q21S, A99V, S168G
notes: as for B2
B23: SEQ ID NO 99 (receptor)
chain: B6 chain with M19Q, Q21S, A99I, I101Q, K102A, S168G
notes: as for B2
B24: SEQ ID NO 76 (receptor)
chain: B6 chain with M19Q, Q21S, S80T, D81Q
notes: as for B2
B25: SEQ ID NO 77 (receptor)
chain: B6 chain with M19Q, Q21S, Y77M, Y78Q, G79Y, S80T, D81L
notes: as for B2
B26: SEQ ID NO 87 (receptor)
chain: B6 chain with M19Q, Q21R, A99V
notes: as for B2
B27: SEQ ID NO 85 (receptor)
chain: B6 chain with M19Q, Q21S, A99I, I101Q, K102A
notes: as for B2
B28: SEQ ID NO 105 (receptor)
chain: B6 chain with G20D, A83S, G84Q, R85W, E87A, A99I, I101L, K102A
notes: as for B2
B29: SEQ ID NO 91 (receptor)
chain: B6 chain with M19Q, Q21S, I66V, A99V
notes: as for B2
B30: SEQ ID NO 88 (receptor)
chain: B6 chain with M19V, A99V, S168G
notes: as for B2
B31: SEQ ID NO 73 (receptor)
chain: B6 chain with M19Q, Q21S, Y77M, Y78Q, G79Y, S80T, D81L, A99V
notes: as for B2
B32: SEQ ID NO 96 (receptor)
chain: B6 chain with M19Q, Q21S, W47Q, A99V, I101V, K102A, S168G
notes: as for B2
B33: SEQ ID NO 98 (receptor)
chain: B6 chain with M19Q, Q21S, A99I, I101Q, K102R, S168G
notes: as for B2
B34: SEQ ID NO 69 (receptor)
chain: B6 chain with M19L, G20S, A99V
notes: as for B2
B35: SEQ ID NO 95 (receptor)
chain: B6 chain with M19Q, Q21S, Y77Q, Y78G, G79V, D81Q, A99V
notes: as for B2
B36: SEQ ID NO 68 (receptor)
chain: B6 chain with M19L, G20F
notes: as for B2
B37: SEQ ID NO 97 (receptor)
chain: B6 chain with M19Q, Q21S, A99I, I101K, K102A, S168G
notes: as for B2
B38: SEQ ID NO 75 (receptor)
chain: B6 chain with M19Q, Q21S, D81Q, T82G, A83G, G84L
notes: as for B2
B39: SEQ ID NO 92 (receptor)
chain: B6 chain with M19Q, Q21S, Y77V, Y78G, G79W, S80A, D81V, A99V
notes: as for B2
B40: SEQ ID NO 100 (receptor)
chain: B6 chain with M19Q, Q21S, A99I, I101L, K102Q, S168G
notes: as for B2
B41: SEQ ID NO 104 (receptor)
chain: B6 chain with M19L, A99I, I101L, K102A
notes: as for B2
B42: SEQ ID NO 94 (receptor)
chain: B6 chain with M19Q, Q21S, S80G, D81Q, T82E, A83G, G84A, A99V
notes: as for B2
B43: SEQ ID NO 64 (receptor)
chain: B6 chain with G20Q, Q21R, K42R, N147S
notes: as for B2
B44: SEQ ID NO 103 (receptor)
chain: B6 chain with G20D, A99I, I101L, K102A
notes: as for B2
B45: SEQ ID NO 86 (receptor)
chain: B6 chain with M19Q, Q21A, A99V, S168G
notes: as for B2
B46: SEQ ID NO 74 (receptor)
chain: B6 chain with M19Q, Q21S, A83S, G84Q, R85W, E87A, A99V
notes: as for B2
B47: SEQ ID NO 84 (receptor)
chain: B6 chain with M19Q, Q21S, A99I, I101K, K102A
notes: as for B2
B48: SEQ ID NO 78 (receptor)
chain: B6 chain with G20D, D81Q, T82G, A83G, G84L, A99V, S168G
notes: as for B2

Molecular target: T1, HLA-A*0201 loaded with the Carcinoembryonic antigen (CEA)-derived … peptide (biotin on the C-terminal biotinylation tag)
T1 construct: Soluble, biotinylated, immobilised on a streptavidin chip
Assay: Biacore SPR
Experimental: SPR measures changes in refractive index expressed in response units (RU) near a sensor surface within a small flow cell, a principle that can be used to detect receptor ligand interactions and to analyse their affinity and kinetic parameters. The probe flow cells were prepared by immobilising the pMHC complexes in flow cells via biotin-tag binding. The assay was then performed by passing soluble ILT-like molecule over the surfaces of the different flow cells at a constant flow rate, measuring the SPR response in doing so.

Kd [nM]	koff [s⁻¹]	Binder
≤ 1000	≤ 2	B1
≤ 1000	≤ 2	B2
≤ 1000	≤ 2	B3
≤ 1000	≤ 2	B4
≤ 1000	≤ 2	B5
≤ 1000	≤ 2	B6
≤ 1000	≤ 2	B7
≤ 1000	≤ 2	B8
≤ 1000	≤ 2	B9
≤ 1000	≤ 2	B10
≤ 1000	≤ 2	B11
≤ 1000	≤ 2	B12
≤ 1000	≤ 2	B13
≤ 1000	≤ 2	B14
≤ 1000	≤ 2	B15
≤ 1000	≤ 2	B16
≤ 1000	≤ 2	B17
≤ 1000	≤ 2	B18
≤ 1000	≤ 2	B19
≤ 1000	≤ 2	B20
≤ 1000	≤ 2	B21
≤ 1000	≤ 2	B22
≤ 1000	≤ 2	B23
≤ 1000	≤ 2	B24

Kd [nM]	koff [s⁻¹]	Binder
≤ 1000	≤ 2	B25
≤ 1000	≤ 2	B26
≤ 1000	≤ 2	B27
≤ 1000	≤ 2	B28
≤ 1000	≤ 2	B29
≤ 1000	≤ 2	B30
≤ 1000	≤ 2	B31
≤ 1000	≤ 2	B32
≤ 1000	≤ 2	B33
≤ 1000	≤ 2	B34
≤ 1000	≤ 2	B35
≤ 1000	≤ 2	B36
≤ 1000	≤ 2	B37
≤ 1000	≤ 2	B38
≤ 1000	≤ 2	B39
≤ 1000	≤ 2	B40
≤ 1000	≤ 2	B41
≤ 1000	≤ 2	B42
≤ 1000	≤ 2	B43
≤ 1000	≤ 2	B44
≤ 1000	≤ 2	B45
≤ 1000	≤ 2	B46
≤ 1000	≤ 2	B47
≤ 1000	≤ 2	B48
